Reference: patent publication US20210261667A1

Experiments:
[1] = molecular target: PD-L1 expressed on the cell surface (HEK293F transiently transfected; A375/PD-L1 stably transfected cells) (UniProt Q9NZQ7); assay: flow cytometry blocking assay on A375/PD-L1 cells; blocked ligand hPD-1(ECD)-Fc-Biotin, SA-PE detection, MFI [table, row 1]
[2] = molecular target: PD-L1 expressed on the cell surface (HEK293F transiently transfected; A375/PD-L1 stably transfected cells) (UniProt Q9NZQ7); assay: flow cytometry blocking assay on A375/PD-L1 cells; blocked ligand hPD-1(ECD)-Fc-Biotin, SA-PE detection [column 0.5 ug/ml]
[3] = molecular target: PD-L1 expressed on the cell surface (HEK293F transiently transfected; A375/PD-L1 stably transfected cells) (UniProt Q9NZQ7); assay: flow cytometry blocking assay on A375/PD-L1 cells; blocked ligand hPD-1(ECD)-Fc-Biotin, SA-PE detection [column 0.05 ug/ml]
[4] = molecular target: PD-L1 expressed on the cell surface (HEK293F transiently transfected; A375/PD-L1 stably transfected cells) (UniProt Q9NZQ7); assay: flow cytometry blocking assay on A375/PD-L1 cells; blocked ligand hPD-1(ECD)-Fc-Biotin, SA-PE detection [column 0.005 ug/ml]
[5] = molecular target: PD-L1 expressed on the cell surface (HEK293F transiently transfected; A375/PD-L1 stably transfected cells) (UniProt Q9NZQ7); assay: flow cytometry blocking assay on HEK293F cells transiently transfected with PD-L1; blocked ligand hPD-1 biotin, SA-PE detection
[6] = molecular target: PD-L1 expressed on the cell surface (HEK293F transiently transfected; A375/PD-L1 stably transfected cells) (UniProt Q9NZQ7); assay: flow cytometry blocking assay on A375/PD-L1 cells; blocked ligand hPD-1(ECD)-Fc-Biotin, SA-PE detection; no concentration printed for this panel, which stands above the 0.5 ug/ml column

Chain of PD-L1 expressed on the cell surface (HEK293F transiently transfected; A375/PD-L1 stably transfected cells) (Q9NZQ7 19-290 limits assumed): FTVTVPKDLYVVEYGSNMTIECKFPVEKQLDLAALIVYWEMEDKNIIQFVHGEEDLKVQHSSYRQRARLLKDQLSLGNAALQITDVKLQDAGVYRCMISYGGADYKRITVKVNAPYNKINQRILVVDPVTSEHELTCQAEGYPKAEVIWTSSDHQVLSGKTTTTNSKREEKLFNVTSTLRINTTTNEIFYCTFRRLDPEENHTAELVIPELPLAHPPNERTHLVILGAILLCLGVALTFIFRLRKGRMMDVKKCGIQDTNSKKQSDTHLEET

Substance | IC50 [1] [mg/L] | Q2 % (cells still positive for hPD-1(ECD)-Fc-Biotin) at 0.5 ug/ml antibody [2] [%] | Q2 % (cells still positive for hPD-1(ECD)-Fc-Biotin) at 0.05 ug/ml antibody [3] [%] | Q2 % (cells still positive for hPD-1(ECD)-Fc-Biotin) at 0.005 ug/ml antibody [4] [%] | Q2 % (cells still positive for PD-1-biotin with the antibody present) [5] [%] | Q2 % (cells still positive for hPD-1(ECD)-Fc-Biotin with the antibody present) [6] [%]
Tecentriq (antibody) | 0.456 | 11.8 | 85.3 | 86 |  | 
negative control antibody |  |  |  |  | 86.2 | 85.9
